Measured values reported in US20150044137A1 (UNITED STATES OF AMERICA AS REPRESENTED BY THE SECRETARY …, published 2015).
Substitutions are numbered along the chain they refer to.

Assays:
RSC3 probe [1] = assay: ELISA-type plate assay (OD450), mAb titrated on RSC3 [panel VRC14b]
RSC3 probe [2] = assay: ELISA-type plate assay (OD450), mAb titrated on RSC3 [panel VRC14]
RSC3 probe [3] = assay: ELISA-type plate assay (OD450), mAb titrated on RSC3 [panel VRC14c]
[4] = target: T1, Yu2 gp120 HIV-1 Env protein (HIV-1 (strain Yu2), UniProt P35961 32-498)
[5] = target: T1, Yu2 gp120 HIV-1 Env protein; assay: ELISA-type plate assay (OD450), mAb titrated on Yu2 gp120 WT

B1: VRC14b (antibody, V domains shown)
VH: QVQLVQSGTALKSPGSSAKLSCTVLGDEFGTYFISWIRQAPGQGLEWVGGIVPHSQLQSSAQKFHGRITISAGAGVTPPVVSLQLTNLTFEDTGTYFCARERGRHRDPKTGDALRGRYFDFWGRGTGVRVST
VL: QSALTQPAFVSGSPGQSITLSCTLGTEDVSWYQQRPNSAPRLIIFDVKKRPSDVSDRFSGHNSDTAAFLTISELRPEDEAEYFCTSWPYRFGRGTKVDVA
- EC50 (read off the curve) (RSC3 probe [1]): ~7 ng/mL

B2: VRC14 (antibody, V domains shown)
VH: B1 VH with T69I, V128L
VL: QSALTQPAFVSGSPGQSITLSCSLGTADVSWYQQRPNSAPRLIIFDVKKRPSDVSDRFSGHNSDTAAFVTISELRPEDEAEYFCTSWPYRFGPGTKVDVAR
notes: also called mAb VRC14
- EC50 (read off the curve) (RSC3 probe [2]): ~6 ng/mL

B3: VRC14c (antibody, V domains shown)
VH: B1 VH with T69I, D112K, L114P, R129T, T132A
VL: B1 VL with E81D, G92D
- EC50 (read off the curve) (RSC3 probe [3]): ~20 ng/mL

B4: VRC13 (antibody, V domains shown)
VH: QVQLVQPGTAMKSLGSSLTITCRVSGDDLGSFHFGTYFMIWVRQAPGQGLEYMGGILPSTKTPTYAHKFRGRVSISAPGVPPVLSLALTNLTYDDTATYFCARERGRHFEPKNRDNLEGKFFDLWGRGTFVRVSP
VL: QSALTQPASVSGSPGQSINISCAGRSDRVSWYQQRPNGVPKLLMFDVYRRPSGVSDRFSGSHSGDTAFLTISGLQTEDEADYYCTSHPYAFGAGTKVNVLR
- IC50 (read off the curve) [4]: ~400 ng/mL

B5: VRC16b (antibody, V domains shown)
VH: EVQLSESGGGVVKPGGSLRLSCEASGFTFSNYAMSWVRQAPGKGLEWVSVTGGHGTYGYYGEFVKGRFTISRDHSMDTVYLQMNRLRVEDTAVYYCVRTPYYHESSGYYYRAGNYFDFWGKGTLVIVSA
VL: DIQMTQSPSSLSASVGDRVTITCRASQDIANYLNWYQKKSGTPPKLLIFAATNLHRGVSPRFSGSGSGTHFSLTITNVQYEDFANYFCQHSFGTIGTFGQGTWVDIR
- EC50 (read off the curve) [5]: ~20 ng/mL

B6: VRC16c (antibody, V domains shown)
VH: EVQLSESGGGFVKPGGSLRLSCEASGFTFNNYAMSWVRQAPGKGLEWVSVTSAHGGSAYYGEFVKGRFTMSRDHFIDTVYLEMNRLTVEDTAVYYCVRVTFYHEGSGYYYRAGNYFDSWGKGTRVVVSA
VL: B5 VL with V15I, S63T, S67H, Y80H, A84G, N85H, H90Q, G93A, I95V, T97S
- EC50 (read off the curve) [5]: ~5 ng/mL

B7: VRC16d (antibody, V domains shown)
VH: B6 VH with R85G
VL: B5 VL with V15I, S63T, S67H, Y80H, A84G, H90Q, G93A, I95V, T97S
- EC50 (read off the curve) [5]: ~5 ng/mL
